In patent US20240132578A1:

Columns and labels:
Experiment in all cases: cell-based or functional assay
[1] = target: HIV-1 Env of isolate MGRM-D-020 (clade D pseudovirus) (HIV-1)
[2] = target: HIV-1 envelope glycoprotein (Env) of isolate MGRM-C-022 (HIV-1)
[3] = target: HIV-1 93IN905 envelope (Env) on pseudovirus (HIV-1)
[4] = target: HIV-1 MGRM-G-004 Env (pseudovirus) (HIV-1)
[5] = target: HIV-1 MGRM-AE-006 Env (pseudovirus) (HIV-1)
[6] = target: HIV-1 envelope glycoprotein (Env) of isolate MGRM-C-006 (HIV-1)
[7] = target: HIV-1 MGRM-AG-003 Env (pseudovirus) (HIV-1)
[8] = target: HIV-1 Env of isolate PVO.4 (Acute), clade B (HIV-1)
[9] = target: HIV-1 MGRM-AG-005 Env (pseudovirus) (HIV-1)
[10] = target: HIV-1 Env of isolate MGRM-A-002 (clade A pseudovirus) (HIV-1)
[11] = target: HIV-1 envelope glycoprotein (Env) of isolate MGRM-C-001 (HIV-1)
[12] = target: HIV-1 Env of pseudovirus MGRM-G-019 (HIV-1)
[13] = target: HIV-1 Env of pseudovirus MGRM-F1-022 (clade F) (HIV-1)
[14] = target: HIV-1 Env of isolate MGRM-A-010 (clade A pseudovirus) (HIV-1)
[15] = target: HIV-1 92UG024 envelope (Env) on pseudovirus (HIV-1)
[16] = target: HIV-1 92RW024 envelope glycoprotein (Env) on pseudovirus (HIV-1 (clade A))
[17] = target: HIV-1 Env of isolate MGRM-F1-015 (HIV-1)
[18] = target: HIV-1 Env of isolate MGRM-D-020 (pseudovirus) (HIV-1)
[19] = target: HIV-1 Env of isolate MGRM-Chronic-B-003 (HIV-1)
[20] = target: HIV-1 MGRM-D-018 Env (HIV-1)
[21] = target: HIV-1 Env of isolate MGRM-F1-014 (HIV-1)
[22] = target: HIV-1 Env of isolate CAAN.A2 (HIV-1)
[23] = target: HIV-1 Env of isolate MGRM-D-008 (pseudovirus) (HIV-1)
[24] = target: HIV-1 Env of isolate MGRM-A-008 (subtype A) (HIV-1)
[25] = target: HIV-1 Env of pseudovirus isolate MGRM-C-028 (clade C) (HIV-1)
HIV-1 APV6 Env (HIV-1) = target: HIV-1 APV6 Env (HIV-1)
[26] = target: HIV-1 Env of isolate MGRM-F1-023 (HIV-1)
[27] = target: HIV-1 Env of pseudovirus MGRM-F1-022 (HIV-1)
[28] = target: HIV-1 Env of pseudovirus MGRM-F1-013 (HIV-1)
[29] = target: HIV-1 envelope glycoprotein (Env) of isolate MG RM-AG-008 (HIV-1)
[30] = target: HIV-1 Env of pseudovirus MGRM-D-019 (HIV-1)
[31] = target: HIV-1 Env of isolate MGRM-AE-002 (pseudovirus) (HIV-1)
[32] = target: HIV-1 Env of isolate MGRM-G-006 (subtype G) (HIV-1)
[33] = target: HIV-1 Env of isolate MGRM-G-019 (subtype G) (HIV-1)
[34] = target: HIV-1 Env of isolate CMU02 (pseudovirus) (HIV-1)
[35] = target: HIV-1 Env of isolate 92RW009 (subtype A) (HIV-1)
[36] = target: HIV-1 Env of isolate MGRM-G-014 (subtype G) (HIV-1)
[37] = target: HIV-1 Env of isolate MGRM-C-025 (subtype C), on pseudovirus (HIV-1)
[38] = target: HIV-1 Env of isolate MGRM-G-004 (subtype G) (HIV-1)
[39] = target: HIV-1 Env of isolate 92RW008 (subtype A) (HIV-1)

Chain of PGT-143 (4980_N08) (antibody) (VH): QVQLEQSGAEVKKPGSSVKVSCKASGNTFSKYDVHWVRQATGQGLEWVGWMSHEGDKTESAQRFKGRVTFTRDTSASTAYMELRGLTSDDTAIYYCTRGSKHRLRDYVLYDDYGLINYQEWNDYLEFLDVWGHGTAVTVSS
Chain of PGT-143 (4980_N08) (antibody) (VL): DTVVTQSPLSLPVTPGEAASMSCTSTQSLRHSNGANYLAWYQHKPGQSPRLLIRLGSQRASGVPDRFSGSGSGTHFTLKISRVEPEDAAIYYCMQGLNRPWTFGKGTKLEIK
Chain of PGT-142 (4995_E20) (antibody) (VH): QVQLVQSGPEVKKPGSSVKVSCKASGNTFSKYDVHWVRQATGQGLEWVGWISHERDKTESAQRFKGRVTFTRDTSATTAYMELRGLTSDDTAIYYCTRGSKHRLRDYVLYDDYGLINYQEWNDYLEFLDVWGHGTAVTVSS
Chain of PGT-142 (4995_E20) (antibody) (VL): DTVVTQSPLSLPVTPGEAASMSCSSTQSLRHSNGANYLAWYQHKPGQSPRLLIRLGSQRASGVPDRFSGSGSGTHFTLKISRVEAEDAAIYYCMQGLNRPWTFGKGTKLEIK
Chain of PGT-145 (4995_P16) (antibody) (VH): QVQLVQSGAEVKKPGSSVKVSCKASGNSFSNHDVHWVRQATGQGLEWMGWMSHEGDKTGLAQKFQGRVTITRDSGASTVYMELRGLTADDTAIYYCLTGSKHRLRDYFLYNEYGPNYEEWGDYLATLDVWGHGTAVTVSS
Chain of PGT-145 (4995_P16) (antibody) (VL): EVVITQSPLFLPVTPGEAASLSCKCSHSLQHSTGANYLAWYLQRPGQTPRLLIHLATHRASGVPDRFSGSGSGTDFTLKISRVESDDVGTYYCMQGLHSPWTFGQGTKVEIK
Chain of 1443_C16 (PG16) (TCN-116) (antibody) (VH): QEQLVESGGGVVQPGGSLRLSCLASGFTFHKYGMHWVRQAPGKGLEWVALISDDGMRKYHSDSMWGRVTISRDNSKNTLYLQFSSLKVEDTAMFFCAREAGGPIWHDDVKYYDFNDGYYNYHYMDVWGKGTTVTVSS
Chain of 1443_C16 (PG16) (TCN-116) (antibody) (VL): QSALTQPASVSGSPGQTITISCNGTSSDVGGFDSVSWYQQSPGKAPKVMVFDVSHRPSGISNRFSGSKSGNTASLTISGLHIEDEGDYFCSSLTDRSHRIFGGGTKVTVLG
Chain of PGT-144 (4970_K22) (antibody) (VH): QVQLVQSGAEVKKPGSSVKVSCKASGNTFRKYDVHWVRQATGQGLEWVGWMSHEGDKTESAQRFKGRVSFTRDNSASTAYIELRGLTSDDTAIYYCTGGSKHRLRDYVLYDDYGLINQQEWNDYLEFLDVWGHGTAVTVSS
Chain of PGT-144 (4970_K22) (antibody) (VL): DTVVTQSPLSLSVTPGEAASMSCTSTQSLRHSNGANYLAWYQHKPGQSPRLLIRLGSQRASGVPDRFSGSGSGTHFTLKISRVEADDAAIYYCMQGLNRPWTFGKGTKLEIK
Chain of PGT-141 (4964_G22; 4993_K13) (antibody) (VH): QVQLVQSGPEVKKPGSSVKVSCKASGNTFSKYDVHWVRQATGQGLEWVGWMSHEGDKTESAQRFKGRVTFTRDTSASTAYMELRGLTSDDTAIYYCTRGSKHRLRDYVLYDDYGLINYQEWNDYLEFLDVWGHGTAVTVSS

| Substance | IC50, pseudovirus neutralization [1] [µg/mL] | IC50 (µg/ml), pseudovirus neutralization [2] [µg/mL] | neutralization IC50 [3] [µg/mL] | IC50 (µg/ml), pseudovirus neutralization [4] [µg/mL] | IC50 (µg/ml), pseudovirus neutralization [5] [µg/mL] | IC50 (µg/ml), pseudovirus neutralization [6] [µg/mL] | IC50 (µg/ml), pseudovirus neutralization [7] [µg/mL] | IC50 (µg/ml), pseudovirus neutralization [8] [µg/mL] | IC50 (µg/ml), pseudovirus neutralization [9] [µg/mL] | IC50 (µg/ml), pseudovirus neutralization [10] [µg/mL] | IC50 (µg/ml), pseudovirus neutralization [11] [µg/mL] | IC50 (µg/ml), pseudovirus neutralization [12] [µg/mL] | IC50 [13] [µg/mL] | IC50 (µg/ml), pseudovirus neutralization [14] [µg/mL] | neutralization IC50 [15] [µg/mL] | IC50 (µg/ml), pseudovirus neutralization [16] [µg/mL] | IC50, pseudovirus neutralization [27] [µg/mL] | IC50, pseudovirus neutralization [28] [µg/mL] | IC50 [29] [µg/mL] | IC50, pseudovirus neutralization [30] [µg/mL] | further results |
| --- | --- | --- | --- | --- | --- | --- | --- | --- | --- | --- | --- | --- | --- | --- | --- | --- | --- | --- | --- | --- | --- |
| 2F5 (antibody) | > 50 | > 50 | > 50 | > 50 | 0.18 | > 50 | 0.14 | > 50 | > 50 | > 50 | > 50 | > 50 | 1.26 | 20.8 | 1.27 | 8.22 |  |  |  |  |  |
| 2G12 (antibody) | > 50 | > 50 | > 50 | > 50 | > 50 | > 50 | > 50 | 0.8 | > 50 | > 50 | 2.93 | 31 | > 50 | 17 | 0.59 | > 50 |  |  |  |  |  |
| 4E10 (antibody) | > 50 | 5.71 | 1.55 | 1.47 | 0.23 | 4.94 | 0.64 | 18.3 | 2.13 | 6.45 | 5.66 | 6.53 | 1.01 | 14.4 | 1.32 | 8.88 |  |  |  |  |  |
| 1443_C16 (PG16) (TCN-116) (antibody) | 16.3 | 0.25 | 0.102 | > 50 | 0.03 | 2.62 | > 50 | 5.43 | > 50 | 0.004 | 16.8 | 1.21 | 0.08 | 0.004 | > 50 | 0.08 |  |  |  |  |  |
| 1495_C14 (PGC14) (antibody) | > 50 | > 50 | > 50 | > 50 | > 50 | > 50 | > 50 | > 50 | > 50 | > 50 | > 50 | > 50 | > 50 | > 50 | > 50 | > 50 |  |  |  |  |  |
| 5147_N06 (PGT-130) (antibody) |  |  |  |  |  |  |  |  |  |  |  |  |  |  |  |  |  |  |  |  | IC50 (µg/mL), pseudovirus neutralization [17]: > 50 µg/mL; IC50 (µg/mL), pseudovirus neutralization [18]: 24.7 µg/mL; IC50 (µg/mL), pseudovirus neutralization [19]: > 50 µg/mL; IC50, pseudovirus neutralization [20]: 0.0378 µg/mL; IC50 (µg/mL), pseudovirus neutralization [21]: 11.8 µg/mL; IC50 (µg/mL), pseudovirus neutralization [22]: > 50 µg/mL; IC50 (µg/mL), pseudovirus neutralization [23]: > 50 µg/mL; IC50, pseudovirus neutralization [24]: > 50 µg/mL; IC50, pseudovirus neutralization [25]: > 50 µg/mL; IC50, pseudovirus neutralization (HIV-1 APV6 Env (HIV-1)): > 10 µg/mL; IC50 (µg/mL), pseudovirus neutralization [26]: 0.05 µg/mL |
| PGT-141 (4964_G22; 4993_K13) (antibody) |  |  |  |  |  |  |  |  |  |  |  |  |  |  |  |  | 0.114 | 0.043 | 19.2 | 1.66 |  |
| PGT-142 (4995_E20) (antibody) |  |  |  |  |  |  |  |  |  |  |  |  |  |  |  |  | 0.04 | 0.023 | 12.1 | 0.155 |  |
| PGT-143 (4980_N08) (antibody) |  |  |  |  |  |  |  |  |  |  |  |  |  |  |  |  | 0.082 | 0.013 | 34 | 0.277 |  |
| PGT-144 (4970_K22) (antibody) |  |  |  |  |  |  |  |  |  |  |  |  |  |  |  |  | 0.382 | 0.509 | > 50 | > 50 |  |
| PGT-145 (4995_P16) (antibody) |  |  |  |  |  |  |  |  |  |  |  |  |  |  |  |  | 0.009 | 0.402 | 0.244 | 0.111 |  |
| VRC01 (antibody) |  |  |  |  |  |  |  |  |  |  |  |  |  |  |  |  | 0.055 | 0.17 | 0.124 | 0.119 | IC50 (µg/mL), single-round pseudovirus neutralization [31]: 0.217 µg/mL; IC50 (µg/mL), pseudovirus neutralization [32]: 0.055 µg/mL; IC50 (µg/mL), pseudovirus neutralization [33]: 0.06 µg/mL; IC50 (µg/mL), single-round pseudovirus neutralization [34]: 0.515 µg/mL; IC50, pseudovirus neutralization [35]: 0.187 µg/mL; IC50 (µg/mL), pseudovirus neutralization [36]: 0.056 µg/mL; IC50, single-round pseudovirus neutralization [37]: 2.36 µg/mL; IC50 (µg/mL), pseudovirus neutralization [38]: > 50 µg/mL; IC50, pseudovirus neutralization [39]: 0.037 µg/mL |
| b12 (antibody) | > 50 | > 50 | 34.1 | > 50 | > 50 | > 50 | > 50 | > 50 | > 50 | > 50 | > 50 | 3.77 | > 50 | > 50 | 49.1 | > 50 |  |  |  |  |  |
